Assay results taken from patent publication US20210371518A1 (University of Texas, published 2021).
Where “and” joins values, the source holds several entries; their conditions need not be identical. Equal values may be shown once.

Key:
[1] = target: T1, human LILRB4 extracellular domain (ECD) recombinant protein (human, UniProt Q8NHJ6 22-259); assay: ELISA, coated LILRB4 ECD
T1 construct: extracellular domain; also called LILRB4 ECD; LILRB4-ECD
Description: FIG. 22 illustrates the determination of exemplary LILRB4 monoclonal antibody (mAbs) binding to human LILRB4 ECD using a concentration titration (0-10 μg/ml) by ELISA. X axis indicates the antibody concentrations and Y-axis is binding signals in OD (450 nm). LILRB4 ECD recombinant protein was coated on high absorption 96-well plates. Serial diluted (3-fold) LILRB4 mAb was added to the coated/blocked and detected using goat anti-rabbit IgG F(ab)₂-conjugated HRP as secondary antibody. The titration curves were fitted using 4-parameter fitting curve using the GraphPad software for EC50 estimation.

[2] = target: T1, human LILRB4 extracellular domain (ECD) …; assay: Octet BLI, antibody on protein A sensor, recombinant human LILRB4 in solution
Description: FIG. 26 illustrates the kinetic binding measurements (sensor-grams) for exemplary LILRB4 antibodies determined using Octet. Antibody at 30 μg/mL was loaded to the proteins A sensor for 4 min. Following a short baseline in kinetics buffer, the loaded sensors were exposed to a series of recombinant human LILRB4 concentrations (0.1-200 nM) and background subtraction was used to correct for sensor drifting. All experiments were performed with shaking at 1,000 rpm. Background wavelength shifts were measured from reference sensors that were loaded only with antibody. ForteBio's data analysis software was used to fit the data to a 1:1 binding model to extract an association rate and dissociation rate. The KD was calculated by the ratio koff/kon using ForteBio's data analysis software 7.0.

[3] = target: T2, human LILRB4 D1 recombinant protein (human, UniProt Q8NHJ6 24-119, limits assumed); assay: ELISA, LILRB4 D1 recombinant protein coated, anti-rabbit IgG F(ab)2-HRP
T2 construct: domain: D1 domain; also called LILRB4 D1 domain (D1); Ig domain-1
T2 sequence (Q8NHJ6 24-119 limits assumed): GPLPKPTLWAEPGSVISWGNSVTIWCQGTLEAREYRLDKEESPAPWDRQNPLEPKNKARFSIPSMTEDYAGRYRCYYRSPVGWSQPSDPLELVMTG
Description: FIGS. 23A-23B. FIG. 23A is a schematic of the LILRB4 extracellular domain (ECD). […] FIG. 23B illustrates the determination of exemplary LILRB4 mAbs binding to Ig domain-1 (D1 domain) of human LILRB4. X axis indicates the antibody concentrations and Y-axis is binding signals in OD (450 nm). LILRB4 D1 recombinant protein was coated on high absorption 96-well plates. Serial diluted (3-fold) LILRB4 mAb was added to the coated/blocked plates and detected using goat anti-rabbit IgG F(ab)₂-conjugated HRP as secondary antibody.

[4] = target: T1, human LILRB4 extracellular domain (ECD) …; assay: Octet
LILRB3 = LILRB3 (human (not printed on the sheet), UniProt O75022); assay: LILR reporter cells on coated antibody, GFP positive (%)
Chain of LILRB3 (O75022 24-443 limits assumed): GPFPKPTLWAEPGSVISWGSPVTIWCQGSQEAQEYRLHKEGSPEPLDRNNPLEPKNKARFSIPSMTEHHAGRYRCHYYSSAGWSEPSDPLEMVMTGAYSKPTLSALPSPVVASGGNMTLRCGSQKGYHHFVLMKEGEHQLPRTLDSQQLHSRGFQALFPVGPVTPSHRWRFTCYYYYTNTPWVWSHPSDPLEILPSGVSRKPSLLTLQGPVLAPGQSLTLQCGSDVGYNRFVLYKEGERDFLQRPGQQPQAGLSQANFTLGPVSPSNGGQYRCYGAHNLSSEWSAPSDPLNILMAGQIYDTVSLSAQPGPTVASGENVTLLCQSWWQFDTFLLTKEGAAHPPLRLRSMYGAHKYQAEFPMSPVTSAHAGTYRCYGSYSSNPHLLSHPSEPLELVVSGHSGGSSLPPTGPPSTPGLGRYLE
Description: (§1) FIGS. 41A-41M illustrate specific binding of h193 antibodies to LILRB4 protein. FIGS. 41A-41L illustrate the specificity of h193 antibodies determined by LILR reporter assays, in which LILR reporter cells are added to the plates coated with h193 antibodies. The binding of h193 antibodies to the ECD of the LILR member on the surface of the reporter cells induced GFP signal. FIG. 41M illustrates the specificity of an exemplary h193 antibody determined by ELISA. LILRA and LILRB recombinant proteins were coated on high absorption 96-well plates. Serial diluted (5-fold) mAb h193 were added to the coated/blocked plates and detected using goat anti-human IgG F(ab)2 conjugated HRP as secondary antibody.

LILRB2 = LILRB2 (human (not printed on the sheet), UniProt Q8N423); assay: as above
Chain of LILRB2 (Q8N423 22-460 limits assumed): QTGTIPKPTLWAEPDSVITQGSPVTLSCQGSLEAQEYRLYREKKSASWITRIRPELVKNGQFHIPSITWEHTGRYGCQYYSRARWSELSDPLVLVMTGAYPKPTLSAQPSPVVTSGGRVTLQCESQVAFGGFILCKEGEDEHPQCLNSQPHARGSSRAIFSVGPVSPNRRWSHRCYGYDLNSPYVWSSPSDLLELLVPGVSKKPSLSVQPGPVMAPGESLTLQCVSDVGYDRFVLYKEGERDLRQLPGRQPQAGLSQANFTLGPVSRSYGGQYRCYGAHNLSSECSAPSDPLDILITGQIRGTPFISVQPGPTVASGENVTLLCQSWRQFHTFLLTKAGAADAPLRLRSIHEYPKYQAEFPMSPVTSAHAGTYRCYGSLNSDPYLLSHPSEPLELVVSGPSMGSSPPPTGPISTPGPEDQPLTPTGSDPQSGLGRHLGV
Description: as §1

LILRA6 = LILRA6 (human (not printed on the sheet), UniProt Q6PI73); assay: as above
Chain of LILRA6 (Q6PI73 24-447 limits assumed): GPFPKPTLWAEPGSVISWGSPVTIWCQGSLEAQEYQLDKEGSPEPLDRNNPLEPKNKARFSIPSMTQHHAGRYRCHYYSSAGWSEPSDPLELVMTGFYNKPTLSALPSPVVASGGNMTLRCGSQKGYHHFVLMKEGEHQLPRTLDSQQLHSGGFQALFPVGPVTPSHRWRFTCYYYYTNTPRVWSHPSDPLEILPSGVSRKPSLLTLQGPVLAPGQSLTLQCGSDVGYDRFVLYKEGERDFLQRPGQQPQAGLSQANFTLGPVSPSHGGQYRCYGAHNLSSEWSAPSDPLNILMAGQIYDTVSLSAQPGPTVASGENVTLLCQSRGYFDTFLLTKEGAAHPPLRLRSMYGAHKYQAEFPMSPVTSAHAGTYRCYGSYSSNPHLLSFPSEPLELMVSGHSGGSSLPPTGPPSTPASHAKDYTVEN
Description: as §1

LILRA3 = LILRA3 (human (not printed on the sheet), UniProt Q8N6C8); assay: as above
Chain of LILRA3 (Q8N6C8 24-439 limits assumed): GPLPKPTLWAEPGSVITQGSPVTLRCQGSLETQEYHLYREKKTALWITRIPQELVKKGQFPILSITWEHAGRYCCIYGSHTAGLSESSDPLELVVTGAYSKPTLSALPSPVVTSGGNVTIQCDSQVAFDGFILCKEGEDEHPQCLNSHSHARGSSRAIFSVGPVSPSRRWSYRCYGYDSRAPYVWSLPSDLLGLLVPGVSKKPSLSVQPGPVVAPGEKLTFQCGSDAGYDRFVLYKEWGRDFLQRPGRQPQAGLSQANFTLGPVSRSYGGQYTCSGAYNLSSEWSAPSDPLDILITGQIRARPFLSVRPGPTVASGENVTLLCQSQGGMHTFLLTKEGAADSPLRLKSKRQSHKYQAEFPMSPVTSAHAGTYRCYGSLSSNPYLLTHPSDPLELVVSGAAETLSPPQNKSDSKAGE
Description: as §1

LILRB1 = LILRB1 (human (not printed on the sheet), UniProt Q8NHL6); assay: as above
Chain of LILRB1 (Q8NHL6 24-461 limits assumed): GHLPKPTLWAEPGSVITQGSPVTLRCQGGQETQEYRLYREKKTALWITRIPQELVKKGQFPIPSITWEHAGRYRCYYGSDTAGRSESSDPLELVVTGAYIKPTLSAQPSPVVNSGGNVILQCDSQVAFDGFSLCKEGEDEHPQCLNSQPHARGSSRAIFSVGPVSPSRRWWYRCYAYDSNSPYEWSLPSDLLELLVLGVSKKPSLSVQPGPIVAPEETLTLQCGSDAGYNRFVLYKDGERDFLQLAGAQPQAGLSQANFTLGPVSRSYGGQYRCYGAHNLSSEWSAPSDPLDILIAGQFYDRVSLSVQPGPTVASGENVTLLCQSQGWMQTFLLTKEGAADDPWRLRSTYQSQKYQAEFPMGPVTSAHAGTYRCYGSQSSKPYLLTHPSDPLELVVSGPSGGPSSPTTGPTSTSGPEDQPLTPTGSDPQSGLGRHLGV
Description: as §1

LILRA5 = LILRA5 (human (not printed on the sheet), UniProt A6NI73); assay: as above
Chain of LILRA5 (A6NI73 42-268 limits assumed): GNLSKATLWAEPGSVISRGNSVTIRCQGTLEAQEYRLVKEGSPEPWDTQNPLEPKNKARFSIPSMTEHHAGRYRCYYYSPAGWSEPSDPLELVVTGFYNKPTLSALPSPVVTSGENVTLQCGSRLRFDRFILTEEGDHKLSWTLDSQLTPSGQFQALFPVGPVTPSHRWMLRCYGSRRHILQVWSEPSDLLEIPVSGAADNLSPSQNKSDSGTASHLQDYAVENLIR
Description: as §1

LILRB5 = LILRB5 (human (not printed on the sheet), UniProt O75023); assay: as above
Chain of LILRB5 (O75023 24-458 limits assumed): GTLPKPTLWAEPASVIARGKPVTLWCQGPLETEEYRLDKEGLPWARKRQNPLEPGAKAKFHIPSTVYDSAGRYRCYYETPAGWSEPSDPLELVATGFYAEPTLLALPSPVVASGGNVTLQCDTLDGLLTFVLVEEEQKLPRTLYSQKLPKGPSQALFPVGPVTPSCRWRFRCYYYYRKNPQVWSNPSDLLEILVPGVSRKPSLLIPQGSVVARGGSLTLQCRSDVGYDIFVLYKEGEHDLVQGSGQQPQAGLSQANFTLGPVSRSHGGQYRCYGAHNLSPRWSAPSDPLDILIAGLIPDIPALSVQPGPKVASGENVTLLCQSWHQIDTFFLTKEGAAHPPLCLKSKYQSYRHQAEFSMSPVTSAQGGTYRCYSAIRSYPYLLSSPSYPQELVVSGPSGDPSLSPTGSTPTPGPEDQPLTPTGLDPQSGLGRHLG
Description: as §1

LILRA4 = LILRA4 (human (not printed on the sheet), UniProt P59901); assay: as above
Chain of LILRA4 (P59901 24-446 limits assumed): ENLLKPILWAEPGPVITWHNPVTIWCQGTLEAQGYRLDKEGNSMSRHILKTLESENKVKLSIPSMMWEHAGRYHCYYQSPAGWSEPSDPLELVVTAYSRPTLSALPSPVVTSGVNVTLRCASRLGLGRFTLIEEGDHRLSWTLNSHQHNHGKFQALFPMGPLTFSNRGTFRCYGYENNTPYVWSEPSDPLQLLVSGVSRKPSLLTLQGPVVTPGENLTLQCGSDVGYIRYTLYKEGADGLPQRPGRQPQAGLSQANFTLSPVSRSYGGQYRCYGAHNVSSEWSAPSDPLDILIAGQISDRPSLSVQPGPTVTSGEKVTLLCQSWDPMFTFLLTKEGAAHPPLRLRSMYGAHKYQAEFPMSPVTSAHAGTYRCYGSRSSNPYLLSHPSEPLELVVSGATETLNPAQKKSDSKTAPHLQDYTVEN
Description: as §1

LILRA1 = LILRA1 (human (not printed on the sheet), UniProt O75019); assay: as above
Chain of LILRA1 (O75019 17-461 limits assumed): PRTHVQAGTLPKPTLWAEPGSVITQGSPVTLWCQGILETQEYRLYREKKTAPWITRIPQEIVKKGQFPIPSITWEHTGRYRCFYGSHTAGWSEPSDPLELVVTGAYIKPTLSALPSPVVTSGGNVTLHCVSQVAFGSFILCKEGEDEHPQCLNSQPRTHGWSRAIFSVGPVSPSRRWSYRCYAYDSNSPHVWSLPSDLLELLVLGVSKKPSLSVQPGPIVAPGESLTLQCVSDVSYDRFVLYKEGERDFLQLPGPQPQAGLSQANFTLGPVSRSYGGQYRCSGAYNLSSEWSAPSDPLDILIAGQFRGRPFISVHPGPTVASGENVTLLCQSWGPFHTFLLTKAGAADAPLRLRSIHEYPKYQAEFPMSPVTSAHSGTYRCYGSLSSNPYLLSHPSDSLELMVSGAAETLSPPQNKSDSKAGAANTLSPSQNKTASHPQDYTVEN
Description: as §1

LILRA2 = LILRA2 (human (not printed on the sheet), UniProt Q8N149); assay: as above
Chain of LILRA2 (Q8N149 24-449 limits assumed): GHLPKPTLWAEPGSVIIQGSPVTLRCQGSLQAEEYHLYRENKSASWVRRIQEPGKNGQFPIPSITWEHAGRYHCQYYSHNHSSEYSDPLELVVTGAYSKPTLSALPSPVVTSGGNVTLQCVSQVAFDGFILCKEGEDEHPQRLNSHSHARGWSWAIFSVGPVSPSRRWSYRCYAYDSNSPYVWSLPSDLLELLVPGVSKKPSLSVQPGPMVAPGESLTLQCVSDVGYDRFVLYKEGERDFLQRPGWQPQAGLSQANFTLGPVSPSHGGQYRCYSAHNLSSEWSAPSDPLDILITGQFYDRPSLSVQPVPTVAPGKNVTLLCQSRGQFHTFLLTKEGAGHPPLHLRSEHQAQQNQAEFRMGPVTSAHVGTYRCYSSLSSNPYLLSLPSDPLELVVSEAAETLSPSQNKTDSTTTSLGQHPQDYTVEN
Description: as §1

[5] = target: T1, human LILRB4 extracellular domain (ECD) …; assay: ELISA

Binder | EC50 [1] [nM] | Kd [2] [nM] | Kd [4] [nM] | koff [4] [s⁻¹] | kon [4] [M⁻¹ s⁻¹] | binding result (LILRB3) | binding result (LILRB2) | binding result (LILRA6) | binding result (LILRA3) | binding result (LILRB1) | binding result (LILRA5) | binding result (LILRB5) | binding result (LILRA4) | binding result (LILRA1) | binding result (LILRA2) | EC50 [5] | further results
B4-116-1 (antibody, V domains shown, Rabbit monoclonal antibody) VH: EQSVEESGGDLVKPGASLTLTCAASGFSFSSTYCMCWVRQAPGKGLEWIACIHGVSTNNRWYASWPKGRFTISKTSSTTVTLQMTSLTAADTATYFCARSDTDYEWGLSLWGPGTLVTISS VL: ELDLTQTPASVSEPVGGTVTIKCQASESIGSRLAWYQQKPGQRPKLLIYKASTLASGVPSRFSGSGSGTEFTLTVSDLECADVAAYYCQCAGQSSTWAFGGGTEVEIK | 2.58 | 0.82 |  |  |  |  |  |  |  |  |  |  |  |  |  |  | 
B4-116-2 (antibody, V domains shown, Rabbit monoclonal antibody) VH: EQSVEESGGDLVKPGASLTLTCAASGFSFSSTYCMCWVRQAPGKGLEWIACIHGVSTNNRWYASWPKGRFTISKTSSTTVTLQMTSLTAADTATYFCARSDTDYEWGLSLWGPGTLVTISS VL: ELVMTQTPASVEAVVGGTVTIKCQASESIGSRLAWYQQKPGQRPKLLIYKASTLASGVPSRFSGSGSGTEFTLTVSDLECADVAAYYCQCAGQSSTWAFGGGTEVVVK | 1.7 | 0.495 |  |  |  |  |  |  |  |  |  |  |  |  |  |  | 
B4-49 (antibody, V domains shown, Rabbit monoclonal antibody) VH: QSLEESGGDLVKPGASLTLTCTASGFDFSSSGWICWVRQAPGKGLELIACIYSGRSGSTYYASWAKGRVTISKTSSTTVTLQMTSLTAADTATYFCARALYVDYVDYDYIDLWGPGTLVTVSS VL: ELDLTQTPASVEAAVGGTVTIKCQASQSTGIRLAWYQQKPGQPPKLLMYATSNLASGVSSRFKGSGSGTEFTLTISDLECADAATYYCQYSYYGSSYVFDFGGGTEVEIK | 1.01 | 0.0233 |  |  |  |  |  |  |  |  |  |  |  |  |  |  | 
h193 antibody No. 35 (h193-H7 / h193-K1) (antibody, V domains shown) VH: EVQLVESGGGLVQPGGSLRLSCAASGFSLSSSYWISWVRQAPGKGLEWIGSIDSGSVGITYYATWVKGRFTISRDNSKNTLYLQMNSLRAEDTAVYYCARHGDNWALDLWGQGTLVTVSS VL: DIQMTQSPSTLSASVGDRVTITCQASQSINSWLAWYQQKPGKAPKLLIYKASTLASGVPSRFSGSGSGTEFTLTISSLQPDDFATYYCQHGYIRGDLDNVFGGGTKVEIK |  |  | 1.05 | 0.000148 | 141000 | no binding | no binding | no binding | no binding | no binding | no binding | no binding | no binding | no binding | no binding | 0.162 µg/mL and 1.08 nM | 
B4-86 (antibody, V domains shown, Rabbit monoclonal antibody) VH: EQSVESGGDLVKPEGSLTLTCTVSGFSFSSSYWICWVRQAPGKGLEWIGCIGTGSGSTYYGSWAKGRFTISKTSSTTVTLQMTSLTAADTATYFCVRGAGYSSYRLWGPGTLVTISS VL: ELDMTQTPASVSEPVGGTVTIKCQASESVSNWLAWYQQKPGQRPKLLIYGASTLESGVPSRFSGSGSGTEFTLTISNLECADAATYYCQQGYDWDNIDNAFGGGTEVVVK | 1.02 | 0.344 |  |  |  |  |  |  |  |  |  |  |  |  |  |  | 

Further lines, with some results ahead:

EC50 [1] [nM] | Kd [2] [nM] | Kd [4] [nM] | koff [4] [s⁻¹] | kon [4] [M⁻¹ s⁻¹] | binding result (LILRB3) | binding result (LILRB2) | binding result (LILRA6) | binding result (LILRA3) | binding result (LILRB1) | binding result (LILRA5) | binding result (LILRB5) | binding result (LILRA4) | binding result (LILRA1) | binding result (LILRA2) | EC50 [5] | Binder | further results
0.99 |  |  |  |  |  |  |  |  |  |  |  |  |  |  |  | B4-15-1 (antibody, V domains shown, Rabbit monoclonal antibody against human LILRB4 ECD) VH: SGGLEESGGRLVTPGTPLTLTCTASGFTINSAHMSWVRQAPGKGLEWIGFSTTGGPSYYANWAKGRFTISRTSTTVDLEITSPTIEDTATYFCARDGPGNNIDMDLWGQGTLVTITS VL: ELDLTQTPASVSEPVGGTVTIKCQASQNRGGSIAWYQQKPGQPPKLLIYSASTLASGVPSRFSGSGYGTEFTLTISGVQCADAGTYYCQSTIYSISDIGAFGGGTEVVVK | 
0.29 | 3.73 |  |  |  |  |  |  |  |  |  |  |  |  |  |  | B4-72-2 (antibody, V domains shown, Rabbit monoclonal antibody) VH: EQSVEESGGRLVTPGTPLTLTCTASGFSLSSYYMSWVRQAPGRGLEYIGVINTGGSAVYATWTKGRFTISRTSTTVDLKMTGLTTEDTATYFCARGWSRGDLWGQGTLVTISS VL: ELDMTQTPSPVSAAVGGTVTIKCQSSQNVYDDDTLSWYQQKPGQPPKLLIYDASKLASGVPDRFSGSGSGTQFTLTISGVQCDDAATYYCLGVFHDGINNAFGGGTEVEIK | 
2.54 | 0.238 |  |  |  |  |  |  |  |  |  |  |  |  |  |  | B4-87 (antibody, V domains shown, Rabbit monoclonal antibody) VH: QSVKESGGDLVKPGASLTLTCTASGFSFISTYWICWVRQAPGKGLELIACIYTGGSGSTYYASWAKGRFTISKTSSTTVTLQLNSLTAADTATYFCARALYVDYVDYDYIDLWGPGTLVTVSS VL: ELDLTQTPASVEAAVGGTVTIKCQASENIGSRLAWYQQKPGQPPKLLIYAASNLASGVSSRFKGSRSGTQFTLTISDLECADAAIYYCQCSYYGSTYVFGFGGGTEVEIK | EC50 (read off the curve) [3]: ~0.2 µg/mL
 |  | 0.984 | 0.00014 | 143000 | no binding | no binding | no binding | no binding | no binding | no binding | no binding | no binding | no binding | no binding | 0.163 µg/mL and 1.08 nM | h193 antibody No. 37 (h193-H7 / h193-K3) (antibody, V domains shown) VH: EVQLVESGGGLVQPGGSLRLSCAASGFSLSSSYWISWVRQAPGKGLEWIGSIDSGSVGITYYATWVKGRFTISRDNSKNTLYLQMNSLRAEDTAVYYCARHGDNWALDLWGQGTLVTVSS VL: DIQMTQSPSTLSASVGDRVTITCRASQSINSWLAWYQQKPGKAPKLLIYKASTLASGVPSRFSGSGSGTEFTLTISSLQPDDFATYYCQHGYIRGDLDNVFGGGTKVEIK | 
 |  | 1.01 | 0.000144 | 143000 | no binding | no binding | no binding | no binding | no binding | no binding | no binding | no binding | no binding | no binding | 0.145 µg/mL and 0.96 nM | h193 antibody No. 36 (h193-H7 / h193-K2) (antibody, V domains shown) VH: EVQLVESGGGLVQPGGSLRLSCAASGFSLSSSYWISWVRQAPGKGLEWIGSIDSGSVGITYYATWVKGRFTISRDNSKNTLYLQMNSLRAEDTAVYYCARHGDNWALDLWGQGTLVTVSS VL: DLVMTQSPSTLSASVGDRVTITCQASQSINSWLAWYQQKPGKPPKLLIYKASTLASGVSSRFSGSGSGTEFTLTISSLQPDDVATYYCQHGYIRGDLDNVFGGGTKVEIK | 
